The target of the experiment is ErbB2-Domain4 protein (human) (UniProt P04626). The experiment in a line: indirect ELISA, ErbB2-Domain4 protein coated at 100 ng/well, antibody in serial dilution, absorbance at 450 nm. (In general: ELISA stands for enzyme-linked immunosorbent assay.)

B1: anti-ErbB2 monoclonal antibody 19G9 (antibody, V domains shown)
VH: LEQSGPGILQPSQTLSLICSFSGFSLSTSGMGVSWIRQPSGKGLEWLAHIYWDDDKRYNPSLKSRLTISKDTSSKQVFLKITSVDTADTATYYCALFAYYNYDGTVDYWGLGTSVTVSS
VL: DIVMTQTPSSLAVSVGEKVTMSCKSSQSLLHSRTRKNYLAWYQQKLGQSPKLLIYWASTRESGVPDRFTGSGSGTDFTLTISSVEAEDLAVYYCKQSYNLYTFGGGTKLEIK
Usually EC50 stands for the concentration giving half of the maximal effect. Consider B1, for which the EC50 came to 100 nM.
